# B1: BMP4: Bone Morphogenetic Protein 4, TGF-beta superfamily member (protein, UniProt P12644 293-408, looked up)
# Bone morphogenetic protein 4: SPKHHSQRARKKNKNCRRHSLYVDFSDVGWNDWIVAPPGYQAFYCHGDCPFPLADHLNSTNHAIVQTLVNSVNSSIPKACCVPTELSAISMLYLDEYDKVVLKNYQEMVVEGCGCR
# Key:
# [1] = test system: cell line E3; experiment: Differentiation of clonal hEP cell line E3 in HyStem beads, Illumina microarray gene expression; format: cell-based, human; details: E3
# Experimental: (§1) Differentiation medium is high glucose DMEM (CellGro Cat. No. 15-013-CV) with Pyruvate, 1 mM (Gibco Cat. 11360), Pen:Strep 100U/ml:100 ug/ml (Gibco Cat. No. 504284), Glutamax 2 mM (Gibco Cat. No. 35050), Dexamethasone 0.1 uM (Sigma, St. Louis, Mo., Cat. No. D1756-100), L-Proline 0.35 mM (Sigma Cat. No. D49752), 2-phospho-L-Ascorbic Acid 0.17 mM (Sigma, Cat. No. 49792, Fluka), and ITS Premix (BD, Franklin Lakes, N.J., sterile Cat. No. 47743-628) with a final concentration 6.25 ug/ml insulin, 6.25 ug/ml transferrin, 6.25 ng/ml selenious acid, serum albumin 1.25 mg/ml, 5.35 ug/ml linoleic acid. In various differentiation conditions, the Differentiation medium is supplemented with various growth factors or other differentiation factors as described herein.
# The Gelin-S® component (10 mg of thiol-modified gelatin (BioTime)) is dissolved in 1.0 ml of degassed deionized water to prepare a 1% w/v solution, and polyethylene glycol diacrylate (10 mg of PEGDA) is dissolved in 0.5 ml of degassed deionized water to prepare a 2% w/v solution. Then, HyStem (1 ml, 1% w/v) is mixed with Gelin-S (1 ml, 1% w/v) immediately before use. Pelleted cells are resuspended in the recently prepared HyStem:Gelin-S (1:1 v/v) mix described above. Upon the addition of the PEGDA cross-linker, the cell suspension, at a final concentration of 2.0×10^7 cells/ml is aliquoted (25 μl/aliquot) into six-well plates (Corning® 3516; VWR, PA, USA) after partial gelation. Following complete gelation (20 min), Differentiation Medium is added to each well. Plates were then placed in a humidified incubator at 37° C. with ambient O2 and 10% CO2, and the cells were fed three-times weekly. At the desired time point, hydrogel constructs were either fixed and processed for immunohistochemical analysis or lysed using RLT (Qiagen, CA, USA) with 1% beta-mercaptoethanol for total RNA to analyze transcript expression using quantitative real-time PCR (qRT-PCR) and/or whole-genome microarray.
# Total RNA was extracted directly from cells growing in 6-well plates or 10 cm tissue culture dishes using Qiagen RNeasy mini kits according to the manufacturer's instructions. RNA concentrations were measured using a Beckman DU530 or Nanodrop spectrophotometer and RNA quality was determined by denaturing agarose gel electrophoresis or using an Agilent 2100 bioanalyzer. Whole-genome expression analysis was carried out using Illumina Human Ref-8v3 or Human HT-12 v4 BeadArrays, and RNA levels for certain genes were confirmed by qRT-PCR. For the Illumina BeadArrays, total RNA was linearly amplified and biotin-labeled using Illumina TotalPrep kits (Life Technologies, Temecula, Calif., USA), and cRNA was quality-controlled using an Agilent 2100 Bioanalyzer. The cRNA was hybridized to Illumina BeadChips, processed, and read using a BeadStation array reader according to the manufacturer's instructions (Illumina, San Diego, Calif., USA). Values of less than 120 relative fluorescence units (RFUs) were considered as nonspecific background signal.
# [2] = test system: fBAT cells; experiment: Differentiation of fBAT preadipocyte cells in HyStem beads, Illumina microarray gene expression; format: cell-based, human; details: 14 days HyStem beads, 50 ng/ml BMP4, FIG. 15 sample 2
# Experimental: as §1
# HyStem-C (BioTime, Inc. Alameda, Calif.) is a matrix composed of thiol-modified gelatin and thiolated hyaluronan crosslinked in vivo or in vitro with (polyethylene glycol diacrylate (PEGDA). We observed that clonal human embryonic progenitor cell lines such as those described in the present invention, could be efficiently differentiated in high-density cultures of said crosslinked collagen and hyaluronate in the following manner. HyStem-C® (BioTime, CA, USA) is reconstituted following the manufacturer's instructions. Briefly, the HyStem component (10 mg of thiol-modified hyaluronan) is dissolved in 1.0 ml of degassed deionized water for approximately 20 min to prepare a 1% w/v solution. […] At the desired time point, hydrogel constructs were either fixed and processed for immunohistochemical analysis or lysed using RLT (Qiagen, CA, USA) with 1% beta-mercaptoethanol for total RNA to analyze transcript expression using quantitative real-time PCR (qRT-PCR) and/or whole-genome microarray.
# Total RNA was extracted directly from cells growing in 6-well plates or 10 cm tissue culture dishes using Qiagen RNeasy mini kits according to the manufacturer's instructions. […] Values of less than 120 relative fluorescence units (RFUs) were considered as nonspecific background signal. […]
molecule,measurement,setting,value
B1,expression of C19ORF80 transcript,"[1]; HyStem beads supplemented with 10 ng/ml BMP4, FIG. 2",highest expression
same,PCK1 transcript expression,"[1]; HyStem beads with 10 ng/ml BMP4 or 100 ng/ml BMP7, FIG. 5",relatively high levels
same,ADIPOQ expression,[2],markedly up-regulating
same,C19ORF80 expression,[2],markedly up-regulating
same,UCP1 expression,[2],low or undetectable level
